Experimental data as given in the RNAGym collection of RNA variant scans (doi:10.1021/acssynbio.7b00057).

B1: Pistol ribozyme (parent)
chain: GGGUCGUUGUUCCAUAAUCGCGUGGAUAUGGCACGCAAGUUUCUACCGGGCACCGUAAAUGUCCGACUGGAGCCGUUCGGGCGGCUAUAAACAGACCUCAGGCCCGAAGCGUGGCGGCACCUGCCGCCGGUGGUAAAAAAGAUCGGAAGAGCACACGUCU

Variants of: B1
Test: aptazyme ON/OFF ratio, guanine; higher = stronger switching; co-transcriptional cleavage with and without guanine

Variant | aptazyme ON/OFF ratio
U8C G9C U10G U11C C12A | 1.22
U8C G9C U10G U11C C12U | 1.05
U8C G9C U10G U11C C12G | 1.21
U8C G9C U10G C12U | 1.12
U8C G9C U10G C12A | 1.2
U8C G9C U10G C12G | 1.19
U8C G9C U11C C13U | 1.04
U8C G9C U11C C13G | 1.04
U8C G9C U11C C13A | 1.11
U8C G9C U10G U11G C12U | 1.09
U8C G9C U10G U11G C12G | 1.13
U8C G9C U10G U11G C12A | 1.15
U8C G9C U11C C12G C13U | 1.15
U8C G9C U11C C12G C13A | 1.2
U8C G9C U11C C12G C13G | 1.26
U8C G9C U10G C12A C13G | 1.08
U8C G9C U10G C12A C13U | 1.09
U8C G9C U10G C12A C13A | 1.13
U8C G9C U10G U11G C13A | 1.11
U8C G9C U10G U11G C13G | 1.11
U8C G9C U10G U11G C13U | 1.07

Variant | aptazyme ON/OFF ratio
U8C G9C U10G U11A C12A | 1.21
U8C G9C U10G U11A C12U | 1.02
U8C G9C U10G U11A C12G | 1.26
U8C G9C U10A U11G C12U C13U | 1.22
U8C G9C U10A U11G C12U C13G | 1.15
U8C G9C U11G | 1.03
U8C G9C U11C | 1.06
U8C G9C U11A | 1.18
U8C G9C U11C C12A C13G | 1.07
U8C G9C U11C C12A C13A | 1.03
U8C G9C U11C C12A C13U | 1.06
U8C G9C U10G U11C | 1.12
U8C G9C U10G U11A | 1.1
U8C G9C U10G U11G | 1.11
U8C G9C U10C C12A C13A | 1
U8C G9C U10C C12A C13G | 1.08
U8C G9C U10C C12A C13U | 1.03
U8C G9C U10C U11C C12A | 1.02
U8C G9C U10C U11C C12G | 1.08
U8C G9C U10C U11C C12U | 0.966
U8C G9C U10C U11A C12A C13A | 1.04

Variant | aptazyme ON/OFF ratio
U8C G9C U10C U11A C12A C13G | 1.05
U8C G9C U10C U11A C12A C13U | 1.02
U8C G9C U10G U11C C12A C13U | 1.13
U8C G9C U10G U11C C12A C13G | 1.14
U8C G9C U10G U11C C12A C13A | 1.19
U8C G9C U10C C12U C13U | 1.06
U8C G9C U10C C12U C13A | 1.02
U8C G9C U10C C12U C13G | 1.07
U8C G9C U10A U11G C13A | 1.2
U8C G9C U10A U11G C13U | 1.13
U8C G9C U10A U11G C13G | 1.2
U8C G9C U10G U11G C12G C13G | 1.1
U8C G9C U10G U11G C12G C13U | 1.11
U8C G9C U10G U11G C12G C13A | 1.13
U8C G9C U10C U11G C12G C13A | 1.13
U8C G9C U10C U11G C12G C13U | 1.08
U8C G9C U10C U11G C12G C13G | 1.09
U8C G9C U10G C12G C13U | 1.09
U8C G9C U10G C12G C13A | 1.08
U8C G9C U10G C12G C13G | 1.09
U8C G9C U11A C12U | 1.08

Variant | aptazyme ON/OFF ratio
U8C G9C U11A C12A | 1.22
U8C G9C U11A C12G | 1.18
U8C G9C U10G U11C C13A | 1.3
U8C G9C U10G U11C C13U | 1.2
U8C G9C U10G U11C C13G | 1.22
U8C G9C U11G C12A | 1.13
U8C G9C U10G U11A C12A C13G | 1.1
U8C G9C U10G U11A C12A C13A | 1.16
U8C G9C U10G U11A C12A C13U | 1.1
U8C G9C U10G U11A C13U | 1.06
U8C G9C U10G U11A C13A | 1.13
U8C G9C U10G U11A C13G | 1.19
U8C G9C U11C C12U C13U | 1.07
U8C G9C U11C C12U C13G | 1.02
U8C G9C U11C C12U C13A | 1.05
U8C G9C U10C C12G C13G | 1.12
U8C G9C U10C C12G C13A | 1.07
U8C G9C U10C C12G C13U | 1.08
U8C G9C U10C U11C C12G C13U | 1.06
U8C G9C U10C U11C C12G C13A | 1.12
U8C G9C U10C U11C C12G C13G | 1.09
